This note sets out measurements from publication PMC9617004, “Cloning and characterization of thermophilic endoglucanase and its application in the transformation of ginsenosides” (AMB Express, 2022).

Common to all, as to assay: HPLC of ginsenoside conversion, Michaelis-Menten
Common to all, as to format: biochemical, Fervidobacterium pennivorans
What all share (conditions): 50 mM phosphate-citrate, pH 6.0, 95 °C, substrate range stated as 0.5 to 10.0 mM (printed unit µM may be mM)

Substrate in data set [1]: [H][C@@]1(O[C@@H]2[C@@H](O)[C@H](O)[C@@H](CO)O[C@@]2([H])O[C@H]2CC[C@]3(C)[C@@]4([H])C[C@@H](O)[C@]5([H])[C@@]([H])([C@](C)(CCC=C(C)C)O[C@@H]6O[C@H](CO[C@@H]7OC[C@H](O)[C@H](O)[C@H]7O)[C@@H](O)[C@H](O)[C@H]6O)CC[C@@]5(C)[C@]4(C)CC[C@@]3([H])C2(C)C)O[C@H](CO)[C@@H](O)[C@H](O)[C@H]1O
From the text: (§1) HPLC of ginsenoside conversion, Michaelis-Menten on BcelFp

Substrate in data set [2]: CC(C)=CCC[C@](C)(O[C@@H]1O[C@H](CO[C@@H]2O[C@H](CO)[C@@H](O)[C@H](O)[C@H]2O)[C@@H](O)[C@H](O)[C@H]1O)[C@H]1CC[C@]2(C)[C@@H]1[C@H](O)C[C@@H]1[C@@]3(C)CC[C@H](O[C@@H]4O[C@H](CO)[C@@H](O)[C@H](O)[C@H]4O[C@@H]4O[C@H](CO)[C@@H](O)[C@H](O)[C@H]4O)C(C)(C)[C@@H]3CC[C@]12C
Description: as §1

Substrate in data set [3]: CC(C)=CCC[C@](C)(O[C@@H]1O[C@H](CO)[C@@H](O)[C@H](O)[C@H]1O)[C@H]1CC[C@]2(C)[C@@H]1[C@H](O)C[C@@H]1[C@@]3(C)CC[C@H](O[C@@H]4O[C@H](CO)[C@@H](O)[C@H](O)[C@H]4O[C@@H]4O[C@H](CO)[C@@H](O)[C@H](O)[C@H]4O)C(C)(C)[C@@H]3CC[C@]12C
Description: as §1

B1: BcelFp (Fervidobacterium pennivorans DSM 9078) (protein)
chain: MDQSVAESDSNSALEYNKIIGKGVNIGNALEAPFEGAWGVRIEDEYFEIIKKRGFDSVRIPIRWSAHISEKPPYDIDRNFLERVKHVVDRALENNLTVIINTHHFEELYQEPDKYGNVLVEIWRQIAKFFKDYPENLFFEIYNEPAQNLTAEKWNELYPKVLKVIRESNPTRIVIIDAPNWAHYSAVRSLKLVNDKRIIVSFHYYEPFNFTHQGAEWVNPTPPVGVKWNGEEWEINQIRSHFKYVSDWAKQNKVPIFLGEFGAYSKADMDSRVKWTESVRKMAEEFGFSYAYWEFCAGFGIYDRWSQNWIEPLATAVVGESKE
notes: 323 residues (969 bp), N-terminal His-tag, pET28a BamHI/XhoI, E. coli BL21-CodonPlus(DE3)-RIL, Ni-NTA; calculated 37,892 Da, about 38 kDa by SDS-PAGE; forward primer starts … (MDQSVA)
As for B1, the figures for the Vmax in data set [1], in data set [2] and in data set [3] were 315 µM/min, 382 µM/min and 156 µM/min, respectively. The kcat/Km was 9390 M⁻¹ s⁻¹ in data set [1], 12500 M⁻¹ s⁻¹ in data set [2] and 27900 M⁻¹ s⁻¹ in data set [3]. In addition, the Km in data set [1] (unit of the source corrected) was determined as 4020 µM; in data set [2] (unit of the source corrected), 3660 µM; in data set [3] (unit of the source corrected) it was 670 µM.
